Residue numbers refer to the chain shown, from its start.
What was measured:
soybean HPPD = assay: HPPD activity, coupled assay with HGD; substrate saturation kinetics (KM, kcat); format: biochemical; conditions: soy HPPD, wt and improved
From the text: HPPD catalyzes the conversion of 4-hydroxyphenylpyruvate (HPP) to homogentisate. See, FIG. 1. […] However, the product of the ensuing reaction in tyrosine metabolism, maleylacetoacetate, absorbs strongly at 320 nm. Furthermore, the enzyme catalyzing that reaction is also a dioxygenase having similar mechanism and buffer requirements as HPPD, making homogentisate dioxygenase (HGD) an ideal partner in a coupled assay, as shown.
The HDG gene from Pseudomonas aeruginosa (Amaya (2004) Arch Biochem Biophys 421, 135-142) was cloned into pVER7062 and electroporated into E. coli strain BL21(DE3). The enzyme was produced by methods similar to those described for HPPD. The purified enzyme has a KM for homogentisate of 23 uM and a kcat of 100/sec, properties highly suited for instantly converting the homogentisate produced by HPPD to maleylacetoacetate.
(§1) HPPD activity was measured by placing an aliquot (e.g., 6 ul) of the substrate HPP at 50-fold the desired final concentration into the wells of a low UV-absorbing assay plate. Reactions were started by adding a mixture (e.g., 294 ul) containing 25 mM Hepes, pH 7, 2 mM ascorbate, 10 uM FeSO4, 1 to 100 uM HPP, 50 nM HGD and 5 to 240 nM HPPD. Absorbance at 320 nm was monitored continuously in a plate-reading spectrophotometer (Spectramax, Molecular Devices).
(§2) The catalytic performance of wild-type HPPD and variants generated by shuffling was assessed by determining the substrate saturation parameters. The Michaelis-Menten kinetics protocol of the Spectramax software was customized for HPP concentrations ranging from 3.33 uM to 100 uM, or up to 1 mM if required. Reaction rates were measured as described above for each concentration of HPP. The software returns values of KM and Vmax using the Lineweaver-Burke transformation of the Michaelis-Menten equation.
(§3) The amino acid substitutions identified during the shuffling and mutagenesis of the maize HPPD gene can be made at analogous positions in other HPPD proteins to improve their insensitivity toward HPPD-inhibiting herbicides. The sequences of native and improved maize HPPD were aligned with those of sorghum (Genbank accession number XP002453359) and soybean (Genbank accession number ABQ96868), and the motif substitutions were designed accordingly, as shown in FIG. 14. The genes designed for improvement were synthesized commercially, inserted into vector pVER7062 and expressed, purified and evaluated as in Example 1.

G. max HPPD = assay: ON/OFF rate ratio insensitivity parameters of HPPD with maize motif substitutions; format: biochemical, Glycine max; conditions: for OFF ratio / ON ratio / ON × OFF Fold vs wt / ON × OFF Value: soy HPPD
Description: (§4) [formula] Higher KD (reduced affinity or increased insensitivity) can be attained with a numerically smaller ON rate, a larger OFF rate or both. […] The ratio of the reaction rate with inhibitor to that without inhibitor during the 70 to 90 second interval of the reaction was termed the “ON rate ratio”. […] Incubations with the same concentrations of enzyme but no mesotrione were done in parallel. After 1 hr at room temperature, 5 to 10 ul of the enzyme-inhibitor complex was dispensed into the wells of the assay plate. Reactions were started with the addition of 290 to 295 ul of 25 mM Hepes, pH 7, 2 mM ascorbate, 10 uM FeSO4, 100 uM HPP and 50 nM HGD. The reactions were monitored at 320 nm for 12 min. Reaction velocity accelerates as inhibitor is released from the enzyme until a steady state is reached, during which the reaction velocity is constant. The ratio of the steady state rate in mixtures containing mesotrione (or other herbicidal inhibitor) to the initial velocity of mixtures lacking inhibitor is termed the “OFF rate ratio”. Another parameter to record is the time span required for the reactions with inhibitor to reach the steady state. […] It is not certain that the steady state attained in the OFF rate reactions actually represents an equilibrium where OFF rates are now equal to ON rates. Because substrate and inhibitors bind in the same site, the high concentration of substrate present may competitively trap the inhibitor and prevent it from binding again. To be sure that improvement in ON rates is being taken into account, the ON and OFF rate ratios were multiplied together and the product is termed the “insensitivity parameter”.

S. bicolor HPPD [1] = assay: HPPD activity, coupled assay with HGD; substrate saturation kinetics; format: biochemical, Sorghum bicolor; conditions: sorghum HPPD, wt and improved
Description: as §1, §2, §3

S. bicolor HPPD [2] = assay: ON/OFF rate ratio insensitivity parameters of HPPD with maize motif substitutions; format: biochemical, Sorghum bicolor; conditions: sorghum HPPD
Description: as §4

B1: GE010082: Glycine max variant HPPD with maize motif substitutions, SEQ ID NO: 458 (protein)
chain: MPIPMCNEIQAQAQAQAQAQPGFKLVGFKNFVRTNPKSDRFQVNRFHHIEFWCTDATNASRRFSWGLGMPIVAKSDLSTGNQIHASYLLRSGDLSFLFSAPYSPSLSAGSSAASSASIPSFDAATCLAFAAKHGFGVRAIALEVADAEAAFSASVAKGAEPASPPVLVDDRTGFAEVRLYGDVVLRYVSYKDAAPQAPHADPSRWFLPGFEAAASSSSFPELDYGIRRLDHAVGNVPELAPAVAYMAGFSGFHEFAEFTAEDVGTSESGLNSMALANNSETVLLPLNEPVYGTKRKSQIETYLEHNEGAGVQHLALVTHDIFTTLREMRKRSFLGGFEFMPSPPPTYYANLHNCAADVLTVDQIKQCEELGIMVDRDDQGTLLQIFTKPVGDRPTIFIEIIQRIGCMVEDEEGKVYQKGACGGFGKGNFGELFKSIEEYEKTLEAKRTAGLTVNS
modifications: HPPD variant
Km (soybean HPPD): 14 µM
kcat (soybean HPPD): 13
OFF ratio (G. max HPPD; Mesotrione): 0.219
ON ratio (G. max HPPD; Mesotrione): 0.444
ON × OFF Fold vs wt (G. max HPPD; Mesotrione): 2.41
ON × OFF Value (G. max HPPD; Mesotrione): 0.097
OFF ratio (G. max HPPD; Tembotrione): 0.070
ON ratio (G. max HPPD; Tembotrione): 0.321
ON × OFF Fold vs wt (G. max HPPD; Tembotrione): 5.10
ON × OFF Value (G. max HPPD; Tembotrione): 0.0224
improvement of insensitivity vs native protein (G. max HPPD; mesotrione): 2.41 fold
improvement of insensitivity vs native protein (G. max HPPD; tembotrione): 5.10 fold

B2: SEQ ID NO: 394 (protein)
chain: MPPTPTTAAATGAAVAAASAEQAAFRLVGHRNFVRVNPRSDRFHTLAFHHVELWCADAASAAGRFSFGLGAPLAARSDLSTGNTAHASLLLRSGALAFLFTAPYAHGADAATASLPSFSAAEARRFAADHGLAVRAVALRVADAEDAFRASVAAGARPAFEPVELGLGFRLAEVELYGDVVLRYVSYPDDADASFLPGFVGVTSPGAADYGLRRFDHIVGNVPELAPAAAYFAGFTGFHEFAEFTAEDVGTTESGLNSMVLANNAENVLLPLNEPVHGTKRRSQIQTYLDHHGGPGVQHMALASDDVLRTLREMQARSAMGGFEFMAPPAPEYYDGVRRRAGDVLTEAQIKECQELGVLVDRDDQGVLLQIFTKPVGDRPTLFLEIIQRIGCMEKDEKGQEYQKGGCGGFGKGNFSQLFKSIEDYEKSLEAKQAAAAQGS
modifications: Sorghum bicolor
Km (S. bicolor HPPD [1]): 4.9 µM
kcat (S. bicolor HPPD [1]): 246
OFF ratio (S. bicolor HPPD [2]; Mesotrione): 0.199
ON ratio (S. bicolor HPPD [2]; Mesotrione): 0.227
ON × OFF Value (S. bicolor HPPD [2]; Mesotrione): 0.045
OFF ratio (S. bicolor HPPD [2]; Tembotrione): 0.032
ON ratio (S. bicolor HPPD [2]; Tembotrione): 0.210
ON × OFF Value (S. bicolor HPPD [2]; Tembotrione): 0.0067

B3: GE010083 (protein)
chain: B2 chain with F232M, V260A, M300I, M326L, A327P, A330L, P331S, R340C, L359M, S416G
modifications: HPPD variant
Km (S. bicolor HPPD [1]): 5.35 µM
kcat (S. bicolor HPPD [1]): 87
OFF ratio (S. bicolor HPPD [2]; Mesotrione): 0.436
ON ratio (S. bicolor HPPD [2]; Mesotrione): 0.634
ON × OFF Fold vs wt (S. bicolor HPPD [2]; Mesotrione): 6.13
ON × OFF Value (S. bicolor HPPD [2]; Mesotrione): 0.277
OFF ratio (S. bicolor HPPD [2]; Tembotrione): 0.071
ON ratio (S. bicolor HPPD [2]; Tembotrione): 0.730
ON × OFF Fold vs wt (S. bicolor HPPD [2]; Tembotrione): 7.71
ON × OFF Value (S. bicolor HPPD [2]; Tembotrione): 0.0517

B4: SEQ ID NO: 2 (protein)
chain: MAIPMCNEIQAQAQAQAQAQPGFKLVGFKNFVRTNPKSDRFQVNRFHHIEFWCTDATNASRRFSWGLGMPIVAKSDLSTGNQIHASYLLRSGDLSFLFSAPYSPSLSAGSSAASSASIPSFDAATCLAFAAKHGFGVRAIALEVADAEAAFSASVAKGAEPASPPVLVDDRTGFAEVRLYGDVVLRYVSYKDAAPQAPHADPSRWFLPGFEAAASSSSFPELDYGIRRLDHAVGNVPELAPAVRYLKGFSGFHEFAEFTAEDVGTSESGLNSVVLANNSETVLLPLNEPVYGTKRKSQIETYLEHNEGAGVQHLALVTHDIFTTLREMRKRSFLGGFEFMPSPPPTYYANLHNRAADVLTVDQIKQCEELGILVDRDDQGTLLQIFTKPVGDRPTIFIEIIQRIGCMVEDEEGKVYQKGACGGFGKGNFSELFKSIEEYEKTLEAKRTA
modifications: Glycine max
Km (soybean HPPD): 2 µM
kcat (soybean HPPD): 83
OFF ratio (G. max HPPD; Mesotrione): 0.135
ON ratio (G. max HPPD; Mesotrione): 0.299
ON × OFF Value (G. max HPPD; Mesotrione): 0.040
OFF ratio (G. max HPPD; Tembotrione): 0.044
ON ratio (G. max HPPD; Tembotrione): 0.102
ON × OFF Value (G. max HPPD; Tembotrione): 0.0044

— US9187762B2, “Compositions and methods comprising sequences having hydroxyphenylpyruvate dioxygenase (HPPD) activity” (PIONEER HI-BRED INTERNATIONAL, INC., priority 2010, dated 2015)
